Laboratory results as given in patent US20240018256A1 (JUNO THERAPEUTICS, published 2024).

Experiments:
human CD19 [1] = target: T1, human CD19 (human, UniProt P15391 20-556); assay: flow cytometry competition for binding with FMC63 (n = 3)
T1 sequence: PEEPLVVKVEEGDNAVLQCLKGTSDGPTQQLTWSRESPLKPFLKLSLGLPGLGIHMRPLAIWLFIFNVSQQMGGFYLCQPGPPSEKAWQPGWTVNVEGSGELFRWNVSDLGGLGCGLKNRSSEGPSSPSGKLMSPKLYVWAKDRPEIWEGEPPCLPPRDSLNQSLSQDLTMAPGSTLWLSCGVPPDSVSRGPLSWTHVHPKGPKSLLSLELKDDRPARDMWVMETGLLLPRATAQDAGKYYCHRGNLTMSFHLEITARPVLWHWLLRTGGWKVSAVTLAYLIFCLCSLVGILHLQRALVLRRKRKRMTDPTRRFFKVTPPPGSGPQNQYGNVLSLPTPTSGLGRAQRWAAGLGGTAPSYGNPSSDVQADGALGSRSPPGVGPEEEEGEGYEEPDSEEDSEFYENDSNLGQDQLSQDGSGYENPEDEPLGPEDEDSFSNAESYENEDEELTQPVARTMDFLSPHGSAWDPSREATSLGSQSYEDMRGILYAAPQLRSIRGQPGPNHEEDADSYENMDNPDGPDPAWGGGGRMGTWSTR

human CD19 [2] = target: T1, human CD19; assay: flow cytometry on CD19-expressing cells (n = 2)

B1: Clone 241 scFv (scFv)
scFv: EVQLVQSGGGLVQPGRSLRLSCAASGFTFDDYAMHWVRQAPGKGLEWVSGISWNSGSIGYADSVKGRFTISRDNAKNSLYLQMNSLRAEDTAVYYCARDQGYHYYDSAEHAFDIWGQGTVVTVSSGGGGSGGGGSGGGGSAIRMTQSPSSLSASVGDRVTVTCQASQDISNYLNWYQQKPGRAPKLLIYDASNVKAGVPSRFSGGGSGTDFTLTISSLQPEDFATYYCQQSYSTPQAYTFGQGTKLDIK
notes: Human scFv
Question: With B1 as the binder, how does the IC50 (human CD19 [1]) read?
Answer: 14.6 nM

Question: And the EC50 (human CD19 [2])?
Answer: 5.2 nM
